Results taken from PMC8390497, “A guanidine-degrading enzyme controls genomic stability of ethylene-producing cyanobacteria” (Nature Communications, 2021).

Substrate: N=C(N)N
Test: HPLC guanidine / GC-MS urea quantification, velocity versus guanidine concentration
Type: biochemical, Synechocystis sp. PCC 6803
Conditions: 20 mM Tris-HCl pH 7.5, 50 mM NaCl, 1 mM MnCl2, 30 °C, His-tagged enzyme, no ATP

B1: Sll1077-His (Synechocystis sp. PCC 6803 substr. Kazusa) (protein)
chain: MSDATPFRPPSEAEEALIKETRLPLTGWQQEVDQGLTYGLEAAASIKDRSIPTFSRGELPHYAGINTFMKAPYLEDVREVGKYDVAIVGVPHDSGTTYRPGTRFGPQGIRRISALYTPYNFEMGVDLREQISLCDVGDIFTIPANNEKSFDQISKGIAHIFSSGAFPIILGGDHSIGFPTVRGICRHLGDKKVGIIHFDRHVDTQETDLDERMHTCPWFHATNMANAPAKNLVQLGIGGWQVPRQGVKVCRERATNILTVTDITEMSLDAAADFAIARATDGTDCVWISFDIDCIDAGFVPGTGWPEPGGLLPREALYLLKRIIRETNVCGMEVVEVSPPYDISDMTSLMATRVICDTMAHLVVSGQLPRTEKPAYIHAEANMAVDEPWQ
notes: full-length with C-terminal 6xHis tag kept (no XhoI linker, pPB316), overexpressed in and purified from Synechocystis 6803 strain PB816W
- Km: 5.3 ± 1.2 mM
- kcat: 0.040 ± 0.010 s⁻¹
